Assay results taken from publication PMC3031242, “A novel neuron-enriched protein SDIM1 is down regulated in Alzheimer's brains and attenuates cell death induced by DNAJB4 over-expression in neuro-progenitor cells” (Molecular Neurodegeneration, 2011).

Biological target: the molecule itself
Assay: dimer-sized band on SDS-PAGE and Western blot; purified GST-SDIM1 (Coomassie and anti-SDIM1 blot, Figure 3A; anti-GST blot of the anti-GST immunoprecipitate, Figure 3D left panel lane 4)

B1: GST-SDIM1 fusion protein (domain or fragment, human, UniProt Q6ZPB5 27-146, looked up)
chain: AGPSPGARTTLGSPLSLWSIKTPSHIFCTRRAINLGFPSPPLVQLIFWSLNAGLDLYLCLISSCGFSQVFWPVEAFCSFSLSFFALALSHKFVICRLDQHIFSGFTKSLKNLPPCHRTDI
notes: first residue C27 mutated to A to increase solubility in E. coli; Cloned into pGEX-3X; GST itself is known to dimerise; also called recombinant GST-SDIM1; SDIM1-GST fusion protein; source: E. coli Rosetta cells, purified (glutathione column)
- binding result: binds
